The text below walks through data of patent publication US11230581B2, “Peptides and combination of peptides for use in immunotherapy against ovarian cancer and other cancers” (Immatics Biotechnologies GmbH, priority 2015, dated 2022).

The target in this test is HLA-A*02:01 (Homo sapiens, UniProt P04439, D140Y/D185E/D98H/E176V/E277Q/G131W/G231S/I119V/I121R/I166T/I218V/L300P/L318F/N151K/N90K/P208A/P217A/Q86G/Q94H/R138H/R169H/T345S). Put plainly: MHC binding assay (UV-ligand exchange, β2m ELISA, peptide exchange yield). Particulars: binding of HLA-class I restricted peptides to HLA-A*02:01, UV-ligand exchange. The text has this: Candidate peptides for T cell based therapies according to the present invention were further tested for their MHC binding capacity (affinity). The individual peptide-MHC complexes were produced by UV-ligand exchange, where a UV-sensitive peptide is cleaved upon UV-irradiation, and exchanged with the peptide of interest as analyzed. Only peptide candidates that can effectively bind and stabilize the peptide-receptive MHC molecules prevent dissociation of the MHC complexes. To determine the yield of the exchange reaction, an ELISA was performed based on the detection of the light chain (β2m) of stabilized MHC complexes. The assay was performed as generally described in Rodenko et al. (Rodenko et al., 2006).
96 well MAXISorp plates (NUNC) were coated over night with 2 ug/ml streptavidin in PBS at room temperature, washed 4× and blocked for 1h at 37° C. in 2% BSA containing blocking buffer. […] Peptide-MHC monomers of the UV-exchange reaction were diluted 100 fold in blocking buffer. Samples were incubated for 1 h at 37° C., washed four times, incubated with 2 ug/ml HRP conjugated anti-β2m for 1h at 37° C., washed again and detected with TMB solution that is stopped with […]. Absorption was measured at 450 nm. Candidate peptides that show a high exchange yield (preferably higher than 50%, most preferred higher than 75%) are generally preferred for a generation and production of antibodies or fragments thereof, and/or T cell receptors or fragments thereof, as they show sufficient avidity to the MHC molecules and prevent dissociation of the MHC complexes.
A general note: In an ELISA, binding on a coated surface is turned into a signal by an enzyme label.

As for “1 (SLMEPPAVLLL; listed as Homo sapiens) [compound 1]”, the “Peptide exchange (MHC class I binding score, peptide exchange yield)” value (“Peptide exchange” for short) was ““+++” (≥50 = +++)”.
In the case of “2 (SLLEADPFL; listed as Homo sapiens) [compound 2]” it was ““+++” (≥50 = +++)”.
The result for “3 (SLASKLTTL; listed as Homo sapiens) [compound 3]” reads ““++++” (≥75% = ++++)”; that for “4 (GIMEHITKI; listed as Homo sapiens) [compound 4]”, ““++++” (≥75% = ++++)”; that for “5 (HLTEVYPEL; listed as Homo sapiens) [compound 5]”, ““+++” (≥50 = +++)”.
In the case of “6 (VLVSDGVHSV; listed as Homo sapiens) [compound 6]” it was ““+++” (≥50 = +++)”; in that of “7 (SLVGLLLYL; listed as Homo sapiens) [compound 7]”, ““++++” (≥75% = ++++)”; in that of “8 (FTLGNVVGMYL; listed as Homo sapiens) [compound 8]”, ““++++” (≥75% = ++++)”.
Take “9 (GAAKDLPGV; listed as Homo sapiens) [compound 9]”: the “Peptide exchange” value was ““++” (≥20% = ++)”.
Turning to “10 (FLATFPLAAV; listed as Homo sapiens) [compound 10]”, the “Peptide exchange” value is given as ““++++” (≥75% = ++++)”.
The result for “11 (KIFEMLEGV; listed as Homo sapiens) [compound 11]” reads ““+++” (≥50 = +++)”; that for “12 (SLWPDPMEV; listed as Homo sapiens) [compound 12]”, ““+++” (≥50 = +++)”.
In the case of “13 (YLMDESLNL; listed as Homo sapiens) [compound 13]” it was ““+++” (≥50 = +++)”.
The result for “14 (AAYGGLNEKSFV; listed as Homo sapiens) [compound 14]” reads ““+++” (≥50 = +++)”; that for “15 (VLLTFKIFL; listed as Homo sapiens) [compound 15]”, ““++” (≥20% = ++)”; that for “16 (VLFQGQASL; listed as Homo sapiens) [compound 16]”, ““+++” (≥50 = +++)”.
On to “17 (GLLPGDRLVSV; listed as Homo sapiens) [compound 17]”, for which the “Peptide exchange” value was ““+++” (≥50 = +++)”.
The result for “18 (YLVAKLVEV; listed as Homo sapiens) [compound 18]” reads ““++” (≥20% = ++)”; that for “19 (FMVDNEAIYDI; listed as Homo sapiens) [compound 19]”, ““++++” (≥75% = ++++)”; that for “20 (RMIEYFIDV; listed as Homo sapiens) [compound 20]”, ““+++” (≥50 = +++)”.
In the case of “21 (VLDELDMEL; listed as Homo sapiens) [compound 21]” it was ““++” (≥20% = ++)”; in that of “22 (IMEENPGIFAV; listed as Homo sapiens) [compound 22]”, ““+++” (≥50 = +++)”.
As for “23 (VLLDDIFAQL; listed as Homo sapiens) [compound 23]”, the “Peptide exchange” value was ““+++” (≥50 = +++)”.
The result for “24 (SLSDGLEEV; listed as Homo sapiens) [compound 24]” reads ““++” (≥20% = ++)”; that for “25 (FLPDEPYIKV; listed as Homo sapiens) [compound 25]”, ““+++” (≥50 = +++)”.
For the substance “26 (ALLELAEEL; listed as Homo sapiens) [compound 26]”, the “Peptide exchange” value is reported as ““+++” (≥50 = +++)”.
In the case of “27 (ILADIVISA; listed as Homo sapiens) [compound 27]”, the “Peptide exchange” value is on record as ““+++” (≥50 = +++)”.
The result for “28 (QLLDETSAITL; listed as Homo sapiens) [compound 28]” reads ““+++” (≥50 = +++)”; that for “29 (KMLGIPISNILMV; listed as Homo sapiens) [compound 29]”, ““+++” (≥50 = +++)”; that for “30 (LILDWVPYI; listed as Homo sapiens) [compound 30]”, ““+++” (≥50 = +++)”.
In the case of “31 (YLAPELFVNV; listed as Homo sapiens) [compound 31]” it was ““++” (≥20% = ++)”.
Take “32 (KLDDLTQDLTV; listed as Homo sapiens) [compound 32]”: the “Peptide exchange” value is recorded as ““++” (≥20% = ++)”.
In the case of “33 (VLLSLLEKV; listed as Homo sapiens) [compound 33]” it was ““++” (≥20% = ++)”; in that of “34 (ILVEADSLWVV; listed as Homo sapiens) [compound 34]”, ““+++” (≥50 = +++)”; in that of “35 (KINDTIYEV; listed as Homo sapiens) [compound 35]”, ““+++” (≥50 = +++)”.
In the case of “36 (YVLEDLEVTV; listed as Homo sapiens) [compound 36]” it was ““++” (≥20% = ++)”; in that of “38 (FLLEDDIHVS; listed as Homo sapiens) [compound 38]”, ““+++” (≥50 = +++)”; in that of “39 (SVAPNLPAV; listed as Homo sapiens) [compound 39]”, ““+++” (≥50 = +++)”.
In the case of “40 (TLLVKVFSV; listed as Homo sapiens) [compound 40]” it was ““+++” (≥50 = +++)”; in that of “41 (SLMPHIPGL; listed as Homo sapiens) [compound 41]”, ““+++” (≥50 = +++)”; in that of “42 (VLLQKIVSA; listed as Homo sapiens) [compound 42]”, ““+++” (≥50 = +++)”.
Consider “43 (VLSSLEINI; listed as Homo sapiens) [compound 43]”, for which the “Peptide exchange” value is on record as ““++” (≥20% = ++)”.
As for “44 (ILDPISSGFLL; listed as Homo sapiens) [compound 44]”, the “Peptide exchange” value was ““++” (≥20% = ++)”.
“45 (SLWQDIPDV; listed as Homo sapiens) [compound 45]”: the “Peptide exchange” value is on record as ““+++” (≥50 = +++)”.
In the case of “46 (ILTEENIHL; listed as Homo sapiens) [compound 46]”, the “Peptide exchange” value is ““+++” (≥50 = +++)”.
In the case of “47 (ILLSVPLLVV; listed as Homo sapiens) [compound 47]” it was ““++” (≥20% = ++)”; in that of “48 (ALAELYEDEV; listed as Homo sapiens) [compound 48]”, ““+++” (≥50 = +++)”; in that of “49 (YLPAVFEEV; listed as Homo sapiens) [compound 49]”, ““+++” (≥50 = +++)”.
In the case of “50 (SLSELEALM; listed as Homo sapiens) [compound 50]” it was ““+++” (≥50 = +++)”; in that of “51 (LLPDLEFYV; listed as Homo sapiens) [compound 51]”, ““++++” (≥75% = ++++)”; in that of “52 (FLLAHGLGFLL; listed as Homo sapiens) [compound 52]”, ““++++” (≥75% = ++++)”.
In the case of “53 (KMIETDILQKV; listed as Homo sapiens) [compound 53]” it was ““++++” (≥75% = ++++)”; in that of “54 (SLLEQGKEPWMV; listed as Homo sapiens) [compound 54]”, ““+++” (≥50 = +++)”.
As to “55 (SLLDLETLSL; listed as Homo sapiens) [compound 55]”, the “Peptide exchange” value is given as ““++++” (≥75% = ++++)”.
Regarding “56 (KLYEGIPVLL; listed as Homo sapiens) [compound 56]”, the “Peptide exchange” value is listed as ““++++” (≥75% = ++++)”.
In the case of “57 (TLAELQPPVQL; listed as Homo sapiens) [compound 57]” it was ““+++” (≥50 = +++)”.
As to “59 (IMEDIILTL; listed as Homo sapiens) [compound 59]”, the “Peptide exchange” value is given as ““+++” (≥50 = +++)”.
